Assay [1] addresses recombinant human FcRn (human α-FcRn with a 6× histidine tag on the C-terminus, co-expressed with human β2M) (human) (UniProt P55899). The assay can be described thus: biolayer interferometry (Octet): antibody on anti-CH1 tip, FcRn in solution, pH 6.0. In general terms: Biolayer interferometry detects binding as a change in optical thickness at a sensor tip.
Assay [2] deals with full-length, membrane-bound FcRn heterodimer (FcRn alpha and β2m) on transiently transfected Expi293 cells (UniProt P55899). The experiment in a line: cell-based competition at pH 6.0, flow cytometry: FcRn-expressing cells, dilutions of IgG against a fixed concentration of labelled Fc competitor Fc-A488.
Assay [3] deals with TRIM21-GST (Antibodies Online catalogue #ABIN1323621) (UniProt P19474). The assay can be described thus: ELISA: antibody coated at 25 µg/mL, TRIM21-GST titrated, EC50 = midpoint of the 4PL fit.
For assay [4], the target named is recombinant human FcRn (human α-FcRn with a 6× histidine tag on the C-terminus, co-expressed with human β2M) (human) (UniProt P55899). The experiment in a line: biolayer interferometry (Octet): antibody on anti-CH1 biosensor, recombinant FcRn in solution, pH 6.0; reference of the fold changes.
Assay [5] deals with TRIM21-GST (Antibodies Online catalogue #ABIN1323621) (UniProt P19474). The assay can be described thus: ELISA, antibody coated, TRIM21-GST titrated; reference WT. A general note: An ELISA detects its analyte on a solid surface through an enzyme-linked reagent.
In assay [6] the target is recombinant human FcRn (human α-FcRn with a 6× histidine tag on the C-terminus, co-expressed with human β2M) (human) (UniProt P55899). The assay can be described thus: biolayer interferometry (Octet): antibody on anti-CH1 biosensor, recombinant FcRn in solution, pH 6.0; fold change against IgG with WT Fc.
The target in assay [7] is C1q of the low toxicity guinea pig complement used in the CDC assay (Cedarlane Laboratories Product #CL4051) (guinea pig).
Assay [8] has as its target FcγRIIIa (UniProt P08637).
Assay [9] concerns the target FcγRIIIa (UniProt P08637). The experiment in a line: plate binding assay, O.D. 650 against antibody concentration (format not described in Example 4).
Assay [10] concerns the target FcγRIIIa (UniProt P08637). The experiment in a line: ELISA: FcγRIIIA coated, antibody titrated.

From patent publication US20250296982A1 come the findings set out here.

As for “antibody molecule with Fc variant FcMut015 (D376Q_M428L)”, the Kd (as a rule, a measure of binding affinity in units of concentration) in assay [1] is 287 nM. The substance also came in with an IC50 (read off the curve) in assay [2] of 90 nM.

Consider “Motavizumab with wild-type Fc (antibody)”, for which the EC50 (as a rule, the concentration at which the effect is half-maximal) in assay [3] turned out to be 8500 ng/mL. For the same substance, in assay [4], the kd (fold decrease*) is 1 fold, the koff (fold decrease*) is 1 fold and the kon (fold increase*) was 1 fold.

With “Motavizumab with Fc variant FcMut213 (H285D_T307Q_A378V) (antibody)”, the TRIM21 binding EC50, fold of WT EC50 in [5] was < 1.5 fold. In [3], the EC50 stood at 10500 ng/mL. Further, in assay [6], the kd (fold decrease*) amounted to 13.2 fold, the koff (fold decrease*) worked out at 3.3 fold and the kon (fold increase*) is 3.8 fold.

Consider “Rituximab with Fc variant FcMut213 (H285D_T307Q_A378V) (antibody)”, for which, in assay [7], the EC50 (CDC, CD20+ Raji cells with guinea pig complement) amounted to 0.267 ng/mL. The substance further gave an EC50 (ADCC reporter bioassay, CD20+ WIL2-S target cells) in assay [8] of 4.01 ng/mL.

For the substance “Motavizumab with Fc variant FcMut215 (T307Q_Q311V_A378V) (antibody)”, the TRIM21 binding EC50, fold of WT EC50 in assay [5] is < 1.5 fold. Also, in assay [3], the 50% effective concentration (EC50) came to 7800 ng/mL. In assay [6], the kd (fold decrease*) was found to be 12.4 fold, the koff (fold decrease*) stood at 3.7 fold and the kon (fold increase*) is 3.4 fold.

For “antibody molecule with Fc variant FcMut008 (T256D_T307R)”, the Kd in assay [1] came to 383 nM. For the same substance, the IC50 (read off the curve) in [2] was determined as 100 nM.

Take “Motavizumab with Fc variant FcMut045 (T256D_T307R_Q311V) (antibody)”: the TRIM21 binding EC50, fold of WT EC50 in [5] was < 1.5 fold. Also, the concentration for a half-maximal effect (EC50) in [3] stood at 7730 ng/mL. Moreover, in assay [6], the kd (fold decrease*) amounted to 5.9 fold, the koff (fold decrease*) is 2.6 fold and the kon (fold increase*) is 2.3 fold.

As for “Rituximab with Fc variant FcMut229 (T256D_H285D_T307R_Q311V_A378V) (antibody)”, the EC50 (CDC, CD20+ Raji cells with guinea pig complement) in assay [7] was found to be 0.14 ng/mL. This substance also had an EC50 (ADCC reporter bioassay, CD20+ WIL2-S target cells) in [8] of 3.07 ng/mL.

Take LS (antibody): in [9], the concentration for a half-maximal effect (EC50 (read off the curve)) (as a rule, the concentration at which the effect is half-maximal) worked out at 60 nM.

In the case of WT (antibody), the EC50 (CDC, CD20+ Raji cells with guinea pig complement) in assay [7] turned out to be 0.715 ng/mL. In addition, the EC50 (ADCC reporter bioassay, CD20+ WIL2-S target cells) in assay [8] was 6.14 ng/mL. Besides, the EC50 (read off the curve) came to 3000 ng/mL in assay [10] and 40 nM in [9]. For the same substance, the Kd in assay [1] is 862 nM. The IC50 (read off the curve) in assay [2] turned out to be 300 nM.

With YTE (Medimmune) (antibody), the EC50 in [3] turned out to be 10100 ng/mL. Besides, in [6], the kd (fold decrease*) was 8.5 fold, the koff (fold decrease*) came out at 3.6 fold and the kon (fold increase*) stood at 2.3 fold.

As for “Rituximab with Fc variant FcMut183 (T256D_Q311V_A378V) (antibody)”, the EC50 (CDC, CD20+ Raji cells with guinea pig complement) in assay [7] is 0.103 ng/mL. Moreover, the EC50 (ADCC reporter bioassay, CD20+ WIL2-S target cells) in [8] was 3.92 ng/mL.

In the case of “Rituximab with Fc variant FcMut197 (H285N_T307Q_N315D) (antibody)”, the EC50 (CDC, CD20+ Raji cells with guinea pig complement) in assay [7] came out at 2.54 ng/mL. This substance came in with an EC50 (ADCC reporter bioassay, CD20+ WIL2-S target cells) in assay [8] of 8.3 ng/mL.

Take “Motavizumab with Fc variant FcMut197 (H285N_T307Q_N315D) (antibody)”: the TRIM21 binding EC50, fold of WT EC50 in assay [5] is < 1.5 fold. The EC50 in [3] amounted to 12300 ng/mL. In [6], the kd (fold decrease*) was determined as 9.1 fold, the koff (fold decrease*) stood at 3 fold and the kon (fold increase*) came out at 2.9 fold.

As to “Motavizumab with Fc variant FcMut183 (T256D_Q311V_A378V) (antibody)”, the TRIM21 binding EC50, fold of WT EC50 in assay [5] was < 1.5 fold. The same substance had an EC50 in [3] of 7410 ng/mL. Further, in assay [6], the kd (fold decrease*) was determined as 11 fold, the koff (fold decrease*) was 3.2 fold and the kon (fold increase*) was 3.2 fold.

As for “Rituximab with Fc variant FcMut215 (T307Q_Q311V_A378V) (antibody)”, the EC50 (CDC, CD20+ Raji cells with guinea pig complement) in [7] turned out to be 0.141 ng/mL. Also, the EC50 (ADCC reporter bioassay, CD20+ WIL2-S target cells) in assay [8] came out at 2.73 ng/mL.

As for LS (Xencor) (antibody), the EC50 in assay [3] worked out at 14500 ng/mL. Moreover, in assay [6], the kd (fold decrease*) stood at 9.2 fold, the koff (fold decrease*) was 3.6 fold and the kon (fold increase*) was 2.6 fold.

For the substance “Motavizumab with Fc variant FcMut228 (T256D_N286D_T307R_Q311V_A378V) (antibody)”, the TRIM21 binding EC50, fold of WT EC50 in assay [5] is < 1.5 fold. In assay [3], this substance had an EC50 of 10400 ng/mL. Further, in assay [6], the kd (fold decrease*) came to 12.4 fold, the koff (fold decrease*) is 4 fold and the kon (fold increase*) worked out at 3.2 fold.

For the substance “Rituximab with Fc variant FcMut228 (T256D_N286D_T307R_Q311V_A378V) (antibody)”, the EC50 (CDC, CD20+ Raji cells with guinea pig complement) in [7] was 0.22 ng/mL. The substance also registered an EC50 (ADCC reporter bioassay, CD20+ WIL2-S target cells) in assay [8] of 2.66 ng/mL.
